Fold lower affinity than xA (746–864) data for one substance are collected here from publication doi:10.1101/2023.09.21.558797.

The test has as its target His-tagged mouse Endophilin A1 SH3 domain (mouse) (UniProt Q62420). Description: ELISA; His-tagged mouse Endophilin A1 SH3 domain coated on a 96-well plate, overlaid with increasing concentrations of GST-tagged Dyn1-PRR peptides; two experiments of four replicates.

Chain of His-tagged mouse Endophilin A1 SH3 domain (mouse) (Q62420 290-349): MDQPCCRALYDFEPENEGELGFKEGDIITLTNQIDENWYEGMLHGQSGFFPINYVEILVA

In turn, “GST-Dyn1xB-PRR (full-length proline-rich region of Dynamin 1 splice variant xB, 746-851) (domain or fragment)” yielded a fold lower affinity than xA (746–864) of 3 fold.
